{"source": "paper PMC12005531", "about": "“Structure of the scaffolding protein and portal within the bacteriophage P22 procapsid provides insights into the self-assembly process” (PLOS Biology, 2025)", "biological_target": "the molecule itself", "experiment": "cryo-EM structure; P22 procapsids (upper CsCl band) from infected S. typhimurium, in phage buffer (10 mM Tris-HCl, 1 mM MgCl2, pH 7.4); symmetry-mismatch reconstruction at about 9 Å and local reconstructions (portal 3.0 Å with C12, nodules 4.9 Å, SP trimer 6.9 Å, SP tetramer 6.9 Å, C-loop 6.7 Å); AlphaFold2 model of gp8 fitted into the maps", "note": "Values joined by “and” are separate entries in the source; they are usually repeats but may differ in a detail not shown here. Equal entries are not always repeated."}
{"protein": "bacteriophage P22 scaffolding protein gp8 (natural protein, UniProt P26748 1-303, looked up, scaffolding protein gp8 of bacteriophage P22, 303 amino acid residues, 33.6 kDa; domains: N-loop 1-57, base 58-84 and 163-245, column 85-162, C-loop 246-267, hook 268-303; the N-loop was not resolved; Native protein within the procapsid; About 250-300 copies per procapsid, from cited work; also called SP; P22 SP; source: phage P22 propagated in S. typhimurium; inside procapsids purified by CsCl …) MEPTTEIQATEDLTLSGDHAAASADSLVVDNANDNAGQEEGFEIVLKDDETAPKQDPAKNAEFARRRIERKRQRELEQQMEAVKRGELPESLRVNPDLPPQPDINAYLSEEGLAKYDYDNSRALAAFNAANTEWLMKAQDARSNAVAEQGRKTQEFTQQSAQYVEAARKHYDAAEKLNIPDYQEKEDAFMQLVPPAVGADIMRLFPEKSAALMYHLGANPEKARQLLAMDGQSALIELTRLSERLTLKPRGKQISSAPPADQPITGDVSAANKDAIRKQMDAAASKGDVETYRKLKAKLKGIR", "values": [{"measurement": "stoichiometry N", "value": "2 and 3 and 4"}]}
